# Measurements reported in patent US20230002478A1 (TWIST BIOSCIENCE, published 2023).
# B1: 6-3 (Fc fusion)
# chain: EVQLVESGGGLVQPGGSLRLSCAASGFTFSPSWMGWFRQAPGKEREFVATINEYGGRNYADSVKGRFTISADNSKNTAYLQMNSLKPEDTAVYYCARVDRDFDYWGQGTLVTVSS
# B2: 6-63 (Fc fusion)
# chain: EVQLVESGGGLVQPGGSLRLSCAASGQTFNMGWFRQAPGKEREFVAAIGSGGSTSYADSVKGRFTISADNSKNTAYLQMNSLKPEDTAVYYCWRLGNDYFDYWGQGTLVTVSS
# How the values were obtained:
# [1] = molecular target: T1, SARS-CoV-2 S1 (HV69-70del, Y453F, D614G) (SARS-CoV-2, UniProt P0DTC2 16-685); experiment: SPR
# T1 construct: domain: S1
# [2] = molecular target: T2, SARS-CoV-2 S1 (HV69-70del, N501Y, D614G) (SARS-CoV-2, UniProt P0DTC2 16-685); experiment: SPR
# T2 construct: domain: S1
Binder,Kd [1] [nM],Kd [2] [nM]
B1,23,9.3
B2,96,63
